Test results taken from publication PMC7611467 (Journal of molecular biology, 2020).
Substitutions are numbered along the chain they refer to.

B1: W37only single-Trp mutant of MgtE (natural protein, Thermus thermophilus, UniProt Q5SMG8 1-450, looked up)
chain: MEEKLAVSLQEALQEGDTRALREVLEEIHPQDLLALWDELKGEHRYVVLTLLPKAKAAEVLSHLSPEEQAEYLKTLPPFRLREILEELSLDDLADALQAVRKEDPAYFQRLKDLLDPRTRAEVEALARYEEDEAGGLMTPEYVAVREGMTVEEVLRFLRRAAPDAETIYYIYVVDEKGRLKGVLSLRDLIVADPRTRVAEIMNPKVVYVRTDTDQEEVARLMADYDFTVLPVVDEEGRLVGIVTVDDVLDVLEAEATEDIHKLGAVDVPDLVYSEAGPVALFLARVRFLVILILTGMVTSSILQGFESVLEAVTALAFYVPVLLGTGGNTGNQSATLIIRALATRDLDLRDFRRVFLKEMGVGLLLGLTLSFLLVGKVYFDGHPLLLPVVGVSLVLIVFFANLVGAMLPFLLRRLGVDPALVSNPLVATLSDVTGLLIYLSVARLLLEAV
B2: W380only single-Trp mutant of MgtE (natural protein, Thermus thermophilus, UniProt Q5SMG8 1-450, looked up)
chain: B1 chain with W37F, F380W
B3: W288only single-Trp mutant of MgtE (natural protein, Thermus thermophilus, UniProt Q5SMG8 1-450, looked up)
chain: B1 chain with W37F, F288W
B4: W79only single-Trp mutant of MgtE (natural protein, Thermus thermophilus, UniProt Q5SMG8 1-450, looked up)
chain: B1 chain with W37F, F79W
B5: W282only single-Trp mutant of MgtE (natural protein, Thermus thermophilus, UniProt Q5SMG8 1-450, looked up)
chain: B1 chain with W37F, F282W
B6: W352only single-Trp mutant of MgtE (natural protein, Thermus thermophilus, UniProt Q5SMG8 1-450, looked up)
chain: B1 chain with W37F, F352W

Target: the molecule itself
Assay: SEC

Row | Protein | binding result
1 | B1 | binds
2 | B2 | binds
3 | B3 | binds
4 | B4 | binds
5 | B5 | binds
6 | B6 | binds
